Measurements as given in publication PMC3735941, “Clostridium scindens: a human gut microbe with a high potential to convert glucocorticoids into androgens” (Journal of Lipid Research, 2013).

Key:
Assay in all cases: purified protein
Type in all cases: biochemical, [Clostridium] scindens
[1] = system: C[C@]12CCC(=O)C=C1CC[C@@H]1[C@@H]2C(=O)C[C@@]2(C)[C@H]1CC[C@]2(O)C(=O)CO; conditions: NADH co-substrate (150 μM in standard assay), 20 mM sodium phosphate pH 7.0, 0.1 M NaCl, 20% glycerol, 10 mM 2-mercaptoethanol, reductive direction
[2] = system: C[C@]12CCC(=O)C=C1CC[C@@H]1[C@@H]2C(=O)C[C@@]2(C)[C@H]1CC[C@]2(O)[C@@H](O)CO; conditions: co-substrate not printed for this constant (oxidative direction, NAD+ presumed), 20 mM sodium phosphate pH 7.0, 0.1 M NaCl, 20% glycerol, 10 mM 2-mercaptoethanol
[3] = system: C[C@]12CCC(=O)C=C1CC[C@@H]1[C@@H]2[C@@H](O)C[C@@]2(C)[C@H]1CC[C@]2(O)C(=O)CO; conditions: NADH co-substrate (150 μM in standard assay), 20 mM sodium phosphate pH 7.0, 0.1 M NaCl, 20% glycerol, 10 mM 2-mercaptoethanol, reductive direction

## DesC (20α-HSDH; desC-ST) ([Clostridium] scindens ATCC 35704)
[1]
  Km: 5.35 µM
[2]
  Km: 4.54 µM
[3]
  Km: 1.46 µM
